Test results taken from the supplement of paper PMC7125110.
± gives the standard error. Fewer inactive variants are shown than the library holds.

B1: glmS ribozyme (parent)
chain: AUAAAAGCGCCAGAACUACAGAAAUGUAGUUGACGAGGAGGAGGUUUAUCGAAUUUUCGGCGGAUGCCUCCAAA

Assays:
Conditions in all cases: with glucosamine-6-phosphate
glucosamine-6-phosphate [1] = variants of: B1; test: self-cleavage kobs at 160 uM GlcN6P; higher = faster cleavage; RNA array
Method in brief: (§1)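 Barcoded ribozyme variants on sequenced MiSeq chips were transcribed in situ by E. coli RNA polymerase and followed at 37 °C through a hybridised Cy3 probe. Glucosamine-6-phosphate at 40 μM to 10 mM in HEPES/KCl/Mg(OAc)2 buffer was flowed in, and tiles were imaged over ~14 h. Signals were normalised to baseline and to non-cleaving reference variants, and per-tile medians were fit to one- or two-exponential decays to give kobs. Weighted Michaelis–Menten fits across concentrations gave kcat and KM.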

glucosamine-6-phosphate [2] = variants of: B1; test: self-cleavage kobs at 2500 uM GlcN6P; higher = faster cleavage; RNA array
Method in brief: as §1

glucosamine-6-phosphate [3] = variants of: B1; test: self-cleavage kobs at 10000 uM GlcN6P; higher = faster cleavage; RNA array
Method in brief: as §1

glucosamine-6-phosphate [4] = variants of: B1; test: self-cleavage kobs at 640 uM GlcN6P; higher = faster cleavage; RNA array
Method in brief: as §1

Variant	self-cleavage kobs at 160 uM GlcN6P (glucosamine-6-phosphate [1]) [s⁻¹]	self-cleavage kobs at 2500 uM GlcN6P (glucosamine-6-phosphate [2]) [s⁻¹]	self-cleavage kobs at 10000 uM GlcN6P (glucosamine-6-phosphate [3]) [s⁻¹]	self-cleavage kobs at 640 uM GlcN6P (glucosamine-6-phosphate [4]) [s⁻¹]
AUAAAAGCGCCAGAACUACAGAAAUGUAUUUGACGGGGAGGAGGUUUAUCGGAUUUUCGGCGGAUGCCUCCAAA [G29U A36G A52G]	< 1e-05	< 1e-05		
AUAAAAGCGCCAGAUCUACAGAAAUGUAGUUUACGAAGAGGAGGUUUAUCGAAUUUUCGGCUGAUGCCUCCAAA [A15U G32U G37A G62U]	< 1e-05			
AUAAAAGCGCCAGAACUACAGAAAUGUAGUUGACGAGGAGUAGGUUUAUCGAAUUUUCGGCGCAUGCCUCCAAA [G41U G63C]	< 1e-05	< 1e-05	< 1e-05	
AUAAAAGCGCCAGGACUACAGAAAUGUAGUUGACGAGGAGGAGGGUUAUCGAUUUUUCGGCGGAUGCCUCCAAA [A14G U45G A53U]	0.000618 ± 0.00016	0.00337 ± 0.0012		0.00262 ± 0.00057
AUAAAAGCGCCAGAACUACAGAAAUGUAGUUGACUAGGAGGCGGUUUAUCGAAUCUUCGGCGGAUGCCUCCAAA [G35U A42C U55C]	< 1e-05			< 1e-05
AUAAAAGCGCCAGAACUACAGAAAUGUAGUUGACGAGGAGGCGGUUCAUCGAAUUUUCGGCGGAUGCCUCCAAA [A42C U47C]	< 1e-05	< 1e-05		< 1e-05
AUAAAAGCGCCAGAACUACAGAAAUGUAGUCGACGAGGAGGAGGUUUAUCGAAUUGUCGCCGGAUGCCUCCAAA [U31C U56G G60C]	< 1e-05		< 1e-05	< 1e-05
AUAAAAGCGCCAGAACUACAGAAAUGUAGCUGACGGGGAGGAGGUUUAUCGAAUUUCCGGCGGAUGCCUCCAAA [U30C A36G U57C]	< 1e-05	< 1e-05		< 1e-05
AUAAAUGCGCCAGAACUACAGAAAUGUAGUUGACGAGGAGUAGGUUUAUCGAAUUUUCGGCGGAUGCAUCCAAA [A6U G41U C68A]	< 1e-05	< 1e-05		
AUAAAAGCGCCAGAACUACAGAAAUGUAGUAGACGAGGAGGAGGUUUAUCGCAUUUUCGGCGGAUGCCUCCAAA [U31A A52C]	< 1e-05	< 1e-05		
AUAAAAGCGCCAGAACUACAGAAAUGUAGUUGACGAGGAGGAGGGUUAUCGAAUUUUCGGAGGAUGCCUCCAAA [U45G C61A]	< 1e-05	< 1e-05	< 1e-05	< 1e-05
AUAAAAGCGCCAGAACUACAGAAAUGUAGGUGACGAGGAGGAGGUUUAUCGAAUUUUCGGCGGAUGCCUCGAAA [U30G C71G]	6.06e-05 ± 2.9e-05	0.000179 ± 4.3e-05	0.000543 ± 0.00012	9.91e-05 ± 2.4e-05
AUAAAAGCGCCAGAACUACAGAAAUGUAGUUGACUAGGAGGAGGGGUAUCGAAUUUUCGGCGGGUGCCUCCAAA [G35U U45G U46G A64G]	< 1e-05	< 1e-05		< 1e-05
AUAAAAGCCCCAGAACUACAGAAAUGUAGUUGACGAGGAGGAGGUUUAUCGAAUUGUCGGCGGCUGCCUCCAAA [G9C U56G A64C]	< 1e-05	< 1e-05		< 1e-05
